According to the supplement of paper PMC9170038:

System: MS2 coat protein
Assay: apparent KD of MS2 coat protein; designed switch direction (-1 OFF switch, 1 ON switch): 1; higher = weaker reporter binding
Method in brief: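 Stalled E. coli RNA polymerase transcribed designed RNA switches on Illumina chips, which were then titrated with SNAP-549-labelled MS2 coat protein, doubling from 0.7 or 1.5 nM to 3 µM. Steps lasted from 0.8–1.5 h at the lowest concentration to 10–20 min at the highest. The apparent KD is each design's median over clusters of curve-fitted normalised fluorescence.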

[1] = input ligand: microRNA oligo, concentration not stated
[2] = Eterna round: R95, input ligand: FMN 200 uM
[3] = Eterna round: R95, input ligand: microRNA oligo, concentration not stated
[4] = Eterna round: R95, input ligand: none

Row | Sequence | apparent KD of MS2 coat protein (input ligand: FMN 200 uM) [nM] | apparent KD of MS2 coat protein [1] [nM] | apparent KD of MS2 coat protein (input ligand: none) [nM] | apparent KD of MS2 coat protein [2] [nM] | apparent KD of MS2 coat protein [3] [nM] | apparent KD of MS2 coat protein [4] [nM]
1 | CGCCAGAGAACAGGAUAUGGGCCGCGGCCUAUGGGCUGCUAACUCACAUGAGGAUCACCCAUGUCCCAGAAGGGUUCCUGGCGG [Xediat] (Eterna round: R96, puzzle: Same State NG 2) | 472 | 23.1 | 262 | – | – | –
2 | CGCGCUCCGGUAGGAUAUGAGGUGCCGUAGGGACCCGCCUACGGACAUGAGGAUCACCCAUGUCCUCAGAAGGACCGGGCGUGA [Soenonorma] (Eterna round: R96, puzzle: Same State NG 2) | 15.1 | 29.6 | 35.5 | – | – | –
3 | CGGGUGGUUCUAGGAUAUCUAGGAUAUGGACGAGGAUUACCCGAGCAGCAUUAGCGCACCAGAGGAGAGAAGGAGAGUGAUGCG [pwkr ssNG2 2F5 2FMN.16] (Eterna round: R96, puzzle: Same State NG 2) | 251 | 3.25 | 53.3 | – | – | –
4 | CGUACACAUGAGGAUCACCCAUGUCAGAUUUGGUCAGGAUAUGGGCGGCAUCCGCUAUUGCCAGAAGGGACUGUUG [JR_SS001_Sub703] (Eterna round: R96, puzzle: Same State 1) | 156 | 43.4 | 64.8 | – | – | –
5 | CGUAGGUAGCUGGAGGAUAUCUGAGUGGUAACAUGAGGAUCACCCAUGUGAUGUGAGGAACAUGAGGAGAAGGCUAGCUGCCUGC [JL-ss2-3.13 JL mod] (puzzle: Same State 2) | – | – | – | 21.4 | 42.2 | 43.5
6 | CGUCCGGCCUGUGCUGGCCGGUAGCAUGUACAUGAGGAUCACCCAUGUUCAUGUGCAGGCUUUUUGCUCGUCUUGUG [salish99_mir208a_r3_007] (puzzle: Sensor for hsa-mir-208a) | – | – | – | 34 | 12.3 | 33.8
7 | CGUCCGGCCUGUGCUGGCCGGUAGCUUGUACAUGAGGAUCACCCAUGUUCAUGUGCUGGCUUUUUGCUCGUCUUGUG [salish99_mir208a_017] (puzzle: Sensor for hsa-mir-208a) | – | – | – | 283 | 27.2 | 419
8 | CGUCGCUGUCGAGAGGAUAUGCGGUGAUGGACAUGAGGAUCACCCAUGUUAGCGAUAGCAUCACGGUAGAAGGCUCUUACGACUG [Soteed Omei mod 24] (puzzle: Same State 2) | – | – | – | 12.6 | 20 | 26.8
9 | CGUUCUUACUCAGGACGGAGAGUAGAGGAACAUGAGGAUCACCCAUGUAUGAGCUUUUUGCUCGUGAUUAACAGUAG [JR_SHM208a_Sub013] (Eterna round: R96, puzzle: Sensor for hsa-mir-208a) | 103 | 55.5 | 86.8 | – | – | –
10 | CGUUCUUACUCAGGACGGAGAGUAGAGGAACAUGAGGAUCACCCAUGUAUGAGCUUUUUGCUCGUGAUUAACAGUAG [JR_SHM208a_Sub013] (puzzle: Sensor for hsa-mir-208a) | – | – | – | 62.7 | 95.4 | 122
11 | CUAAAACAUGAGGAUCACCCAUGUCAACAAAGUCGAGGAUAUGGGCAAAUAAAAUAAGAACCAGAAGGCGAAUAAU [salish99_SS1_r3_012] (puzzle: Same State 1) | – | – | – | 42.3 | 422 | 485
12 | CUCAAAACAAGCUGCAGUGUUCGUCUUUAACAUGAGGAUCACCCAUGUAGUAGCCCGGUGGAAGCGCUCGGGCCACC [Antetera] (puzzle: Sensor for hsa-mir-208a) | – | – | – | 44.3 | 27.8 | 43.9
13 | CUCAAAACAAGUUGCAGUGUUCGUCUUUAACAUGAGGAUCACCCAUGUAAUAACCCGGUGGAAGCGCUCGGGCCACC [Gereerle] (puzzle: Sensor for hsa-mir-208a) | – | – | – | 25.7 | 15.5 | 26.1
14 | CUCAAACAUGAGGAUCACCCAUGUGUUGUCAUGGGAGGAUAUCCAAGUUCGUUGUAGUCGGGAGAAGGCCUAUGUC [× ×•×ª×• ×ž×“×™× ×” × ×—×ª-12] (puzzle: Same State 1) | – | – | – | – | 139 | –
15 | CUCAAACAUGAGGAUCACCCAUGUUUUUUCAUGGGAGGAUAUCUAAGUUCAUUAUAUUCAGGAGAAGGCCUAUCUC [× ×•×ª×• ×ž×“×™× ×” × ×—×ª-06] (puzzle: Same State 1) | – | – | – | 54.5 | 36 | 30.3
16 | CUCCCAUGUGCACAGGAUAUGCCGGGAUGCACAUGAGGAUCACCCAUGUAAUCCUGAAAAUAAAAGCAGAAGGGUGAUCAUGGGU [Teriqula] (puzzle: Same State 2) | – | – | – | 7.24 | 16.5 | 13.2

Row | Sequence | apparent KD of MS2 coat protein (input ligand: FMN 200 uM) [nM] | apparent KD of MS2 coat protein [1] [nM] | apparent KD of MS2 coat protein (input ligand: none) [nM] | apparent KD of MS2 coat protein [2] [nM] | apparent KD of MS2 coat protein [3] [nM] | apparent KD of MS2 coat protein [4] [nM]
17 | CUCCCUUGGGUAGGAUAUCUAGGAUAUGGGAAAGACUAAGUCUGUAGGUCACCUAACCCAGAUGGAGAGAAGGACCCAACACUC [pwkr ssNG2 2FMN + F9.39] (Eterna round: R96, puzzle: Same State NG 2) | 3.66 | 33.3 | 15.8 | – | – | –
18 | CUGAAAUGUCAAGGAUAUCACGUCGAUUAGACGUGAGAAGGUGAUCUACACAUGAGGAUCACCCAUGUGUUACGUGGGAGUCAG [Brourd's SSNG1/1-A2 mod 18] (Eterna round: R96, puzzle: Same State NG 1) | 82.1 | 104 | 171 | – | – | –
19 | CUGACUUGUCAAGGAUAUCACGUCGAUUAGACGUGAGAAGGUGAUCUACACAUGAGGAUCACCCAUGUGUUACGUGGGAGUCAG [Brourd's SSNG1/1-A2 mod 20] (Eterna round: R96, puzzle: Same State NG 1) | 34.8 | 69 | 94.7 | – | – | –
20 | CUGAGAAGUCAAGGAUAUCACGUCGAUUAGACGUGAGAAGGUGAUCAGUACAUGAGGAUCACCCAUGUGUUACAUGGAACUCAG [Brourd's SSNG1/1-A2 mod 8] (Eterna round: R96, puzzle: Same State NG 1) | 1660 | 367 | 1110 | – | – | –
21 | CUGAGAAGUCAAGGAUAUCACGUCGAUUAGACGUGAGAAGGUGAUCAUUACAUGAGGAUCACCCAUGUGUUACAUGGAGCUCAG [Brourd's SSNG1/1-A2 mod 6] (Eterna round: R96, puzzle: Same State NG 1) | 703 | 124 | 938 | – | – | –
22 | CUGAGAUGUCAAGGAUAUGCUACCGUUUCGGUAGCAGAAGGUGAUCACAUGAGGAUCACCCAUGUAUGCAUGCGUGAGCGUGCU [JL SSNG1 3.59] (Eterna round: R96, puzzle: Same State NG 1) | 234 | 36.9 | 62 | – | – | –
23 | CUGAGCGAUCAAGGAUAUCACGUCGAAUAGACGUGAGAAGGUGAUCAUAACAUGAGGAUCACCCAUGUAUUACAUGAAGCUCAG [SSNG1/2-A1] (Eterna round: R96, puzzle: Same State NG 1) | 231 | 536 | 2240 | – | – | –
24 | CUGAGCGAUCAAGGAUAUCACGUCGAAUAGACGUGAGAAGGUGAUCCAUACAUGAGGAUCACCCAUGUAUAACAUGAAGCUCAG [SSNG1/8-A1] (Eterna round: R96, puzzle: Same State NG 1) | 794 | 21.6 | 404 | – | – | –
25 | CUGCUCGGGUGAGGAUAUGCCGCCGUUUCGGCUGCAGAAGGUGCUACGUUACAUGAGGAUCACCCAUGUCUCUGUUGUUUCGUG [salish99_SSNG1_r04_966] (Eterna round: R96, puzzle: Same State NG 1) | 108 | 60.7 | 76 | – | – | –
26 | CUGCUCGGGUGAGGAUAUGCCGCCGUUUCGGCUGCAGAAGGUGCUACGUUACAUGAGGAUCACCCAUGUCUCUGUUGUUUCGUU [salish99_SSNG1_r04_965] (Eterna round: R96, puzzle: Same State NG 1) | 72.1 | 42.8 | 62.2 | – | – | –
27 | CUGCUCGUGUGAGGAUAUGCCGCCGUUUCGGCUGCAGAAGGUGCUACGUUACAUGAGGAUCACCCAUGUCUCUGUUGUUUCGUC [salish99_SSNG1_r04_946] (Eterna round: R96, puzzle: Same State NG 1) | 25.6 | 18.7 | 31.3 | – | – | –
28 | CUGUGUUGCGGGCAGGAUAUGUACUUGAGUACAUGAGGAUCACCCAUGUGCGGGUGUUUCACCCGACAGAAGGGCCAAUCGCGAC [JL-ss2-3.23 ViennaUCT mod] (puzzle: Same State 2) | – | – | – | 68.8 | 311 | 1520
29 | CUGUGUUGCGGGCAGGAUAUGUAUUGGAAUACAUGAGGAUCACCCAUGUGCGGGUGUUUCACCCGACAGAAGGGCCAAUCGCGAC [JL-ss2-3.21 ViennaUCT mod] (puzzle: Same State 2) | – | – | – | – | 266 | –
30 | CUUUAUCACUAUACAUGAGGAUCACCCAUGUUAUCAUCAUGAGAGGAUAUCGUAAUAGGAUUUUUCGAGAAGGCUCUAAAGUAU [JR_SSNG3_Sub078] (Eterna round: R96, puzzle: Same State NG 3) | 52.1 | 167 | 142 | – | – | –
31 | GAAAUAAUGUAAGGAUAUACAUGAGGAUUUCUCGUAGAAGGUACAAGACAUGAGGAUCACCCAUGUGUCGCUCCGUAGAGCGUA [Mat - Same State NG 1 - JL mod - D14] (Eterna round: R96, puzzle: Same State NG 1) | – | 125 | – | – | – | –
